{
  "source": "patent US20230416400A1",
  "about": "(published 2023)",
  "binders": {"B1": {"name": "chimeric BRAF V600E antibody (mouse variable domains, rabbit IgG heavy chain and rabbit kappa1 light chain constant domains; heavy chain SEQ ID NO:2 and light … (antibody, V domains shown)", "VH": "QAYLQQSGAELVRPGASVKMSCKASGYTFTSYNMHWIKQTPRQGLEWIGAIYPGNGDTSYNQKFKGKATLTVDRSSNTAYMQLSSLTSEDSAVYFCARDGISPWGQGTLVTVSS", "VL": "DIKMTQSPSSMYASLGERVTITCKASQDINRYLSWFQQKPGKSPKTLIYRANRVLDGVPSRFSGSGSGQDYSLTISSLESEDMGIYYCLHYDEYPYTYGGGTKLEIKG"}, "B2": {"name": "recombinant mouse anti-human BRAF V600E antibody (mouse IgG2a heavy chain, mouse kappa1 light chain) (antibody, V domains shown)", "VH": "B1 VH", "VL": "DIKMTQSPSSMYASLGERVTITCKASQDINRYLSWFQQKPGKSPKTLIYRANRVLDGVPSRFSGSGSGQDYSLTISSLESEDMGIYYCLHYDEYPYTYGGGTKLEIK"}},
  "key": {"[1]": {"target": "T1, BRAF V600E peptide (biotinylated synthetic peptide including the amino acids of and surrounding the BRAF … (also: biotinylated (position not given here)))", "T1 peptide": "GLATEKSRWSG", "assay": "BLI"}, "[2]": {"target": "BRAF in colorectal cancer specimens with V600E mutation status: negative (human) (UniProt P15056)", "assay": "IHC, FLEX++ Dako OMNIS, CRC block 6 BRAF-, V600E mutation status negative"}, "[3]": {"target": "BRAF in colorectal cancer specimens with V600E mutation status: negative (human) (UniProt P15056)", "assay": "IHC, FLEX++ Dako OMNIS, CRC block 7 BRAF-, V600E mutation status negative"}, "[4]": {"target": "BRAF in colorectal cancer specimens with V600E mutation status: negative (human) (UniProt P15056)", "assay": "IHC, FLEX++ Dako OMNIS, CRC block 8 BRAF-, V600E mutation status negative"}, "[5]": {"target": "BRAF in colorectal cancer specimens with V600E mutation status: negative (human) (UniProt P15056)", "assay": "IHC, FLEX++ Dako OMNIS, CRC block 9 BRAF-, V600E mutation status negative"}, "[6]": {"target": "BRAF in colorectal cancer specimens with V600E mutation status: negative (human) (UniProt P15056)", "assay": "IHC, FLEX++ Dako OMNIS, CRC block BRAF- (slide 51), V600E mutation status negative", "design": "scale not given here"}, "[7]": {"target": "BRAF in colorectal cancer specimens with V600E mutation status: negative (human) (UniProt P15056)", "assay": "IHC, FLEX++ Dako OMNIS, CRC block BRAF- (slide 52), V600E mutation status negative"}, "[8]": {"target": "BRAF in colorectal cancer specimens with V600E mutation status: negative (human) (UniProt P15056)", "assay": "IHC, FLEX++ Dako OMNIS, CRC block 10 BRAF-, V600E mutation status negative (clinical status Equivocal/Negative)"}},
  "note": "No end group written: not given here.",
  "data": [
    {"binder": "B1", "values": [
      {"measurement": "Kd", "setting": "[1]", "result": 5.05, "unit": "pM"},
      {"measurement": "Tumor cells staining intensity", "setting": "[2]", "result": 0.125},
      {"measurement": "Tumor cells staining intensity", "setting": "[3]", "result": 0.125},
      {"measurement": "Tumor cells staining intensity", "setting": "[4]", "result": 0},
      {"measurement": "Tumor cells staining intensity", "setting": "[5]", "result": 0.125},
      {"measurement": "Tumor cells staining intensity", "setting": "[6]", "result": 0.125},
      {"measurement": "Tumor cells staining intensity", "setting": "[7]", "result": 0.125},
      {"measurement": "Tumor cells staining intensity", "setting": "[8]", "result": 0.25}
    ]},
    {"binder": "B2", "values": [
      {"measurement": "Kd", "setting": "[1]", "result": 4.86, "unit": "pM"}
    ]}
  ]
}
